Laboratory results: PMC8299219 (Cell, 2021)
Numbering of substitutions follows the chain as printed.

B1: C53F10 (antibody, V domains shown)
VH: EVQLVQSGAEVKKPGESLRISCKGAGYSFTSYWITWVRQMPGKGLEWMGRIDPSDSYTNYSPSFEGHVTISADKSISTAYLQWSSLKASDTAMYYCARLYCGGDCPPGYWGQGTLVTVSS
VL: not shown
B2: G32C4 (antibody, V domains shown)
VH: EVQLVQSGAEVKKPGESLKISCKGSGYSFISYWIGWVRQMPGKGLEWMGIIYPGDSDTRYSPSFQGQVTISADKSISTAYLQWSSLKASDTAMYYCARMTQGYGTIRPLYYFDYWGQGTLVTVSS
VL: not shown
B3: G32B6 (antibody, V domains shown)
VH: QVQLVQSGAEVKKPGASVKVSCKASGYTFTGYYMYWVRQAPGQGLEWMGWINPNSGGTNYAQKFQGRVTMTRDRSISTAYMELSRLRSDDTAMYYCARDRVGDILTGYYGYWGQGTLVTVSS
VL: QSALTQPPSASGSPGQSVTISCTGTSSDVDSYNYVSWYQQHPGKAPKLMIYEVSKRPSGVPDRFSGSKSGNTASLTVSGLQAEDEADYYCSSYAGSNNWVFGGGTKLTVL
B4: G32A8 (antibody, V domains shown)
VH: QVQLVQSGAEVKKPGASVKVSCKASGYTFTGYYMHWVRQAPGQGLEWMGWINPNSGATNYAQKFQGRVTMTRDTSINTAYMELNRLRSDDTAVYYCARDIVFSRLGASFDYWGQGTLVTVSS
VL: B3 VL with D30G, S31G, S54T, N98Y, W99N
B5: C18C11 (antibody, V domains shown)
VH: EVQLVESGGGVVQPGRSLRLSCAASGFTFSSYAMHWVRQAPGKGLEWVAVISYDGSNKYYADSVKGRFTISRDNSKNTLYLQMNSLRAEDTAVYYCASLITMVRGVFDYWGQGTLVTVSS
VL: not shown
B6: C53F11 (antibody, V domains shown)
VH: QVQLQESGPGLVKPSETLSLTCTVSGYSISSGYYWGWIRQPPGKGLEWIGSIYHSESTYYNPSLKSRVTISVDTSKSQFSLKLSSVTAADTAVYYCGRSLWDSIWEDHIGAVDYWGQGTLVTVSS
VL: QSALTQPASVSGSPGQSITISCTGTSSDVGNYNLVSWYQQHPGKAPKLMIYEGSKRPSGVSNRFSGSKSGNTASLTISGLQAEDEADYYCCSYAGSSILWVFGGGTKLTVL
B7: C63D3 (antibody, V domains shown)
VH: EVQLVESGGGLVQPGGSLRLSCAASGFTFSSYDMHWVRQATGKGLEWVSVIGTAGDTYYPGSVKGRFTISRENAKNSLYLQMNSLRAGDTAVYYCARGHSTGQGYSYYYYMDVWGKGTTVTVSS
VL: not shown
B8: C63C7 (antibody, V domains shown)
VH: not shown
VL: QSVLTQPPSVSGAPGQRATISCTGSSSNIGAGYDVHWYQQLPGTSPKLLIYGNSNRPSGVPDRFSGSKSGTSASLAITGLQAEDEAEYYCQSYDSSLSGSVVFGGGTKLTVL
B9: C12E7 (antibody, V domains shown)
VH: QVQLVESGGGVVQPGRSLRLSCAASGFTFSSYGMHWVRQAPGKGLEWVAVISYDGSNKYYADSVKGRFTISRDNSKNTLYLQMNSLRAEDTAVYYCAKSGYSYAYPMVYFDYWGQGTLVTVSS
VL: SYELTQPPSVSVAPGKTARITCGGNNIGSKSVHWYQQKPGQAPVLVVYDDSDRPSGIPERFSGSNSGNTATLTISRVEAGDEADYYCQVWDSSSDHPGVFGGGTKLTVL
B10: C30C2 (antibody, V domains shown)
VH: EVQLVESGGGLVQPGGSLRLSCAASGFTVSSNYMSWVRQAPGKGLEWVSVIYSGGSTYYADSVKGRFTISRDNSKNTLYLQVNSLRAEDTAVYYCARDGRDNAFDIWGQGTMVTVSS
VL: not shown
B11: C15D10 (antibody, V domains shown)
VH: QVQLQQSGPGLVKPSQTLSLTCAISGDSVSSNSAAWNWIRQSPSRGLEWLGRTYYRSKWYNDYAVSVKSRITINPDTSKNQFSLQLNSVTPEDTAVYYCAREQQLVSHDYYYYYGMDVWGQGTTVTVSS
VL: QSALTQPASVSGSPGQSITISCTGTSSDVGGYNYVSWYQQHPGKAPKLMIYDVSNRPSGVSNRFSGSKSGNTASLTISGLQAEDEADYYCSSYTSSSSLFGTGTKVTVL
B12: C102A4 (antibody, V domains shown)
VH: QVQLVQSGAEVKKPGSSVKVSCKASGGTFSSYAISWVRQAPGQGLEWMGGIIPIFGTANYAQKFQGRVTITADESTSTAYMELSSLRSEDTAVYYCATQPSYGDLDLFDYWGQGTLVTVSS
VL: not shown
B13: C41P1 (antibody, V domains shown)
VH: QVQLVESGGGVVQPGRSLRLSCAASGFTFSSYAMHWVRQAPGKGLEWVAVISYDGRNKYYADSVKGRFTISRENSKNTLYLQMNSLRAEDTAVYYCARDLGVVVPAAIGWVNPRDDYYYYYGMDVWGQGTTVTVSS
VL: SYELTQPPSVSVSPGQTARITCSGDALPKQYAYWYQQKPGQAPVLVIYKDSERPSGIPERFSGSSSGTTVTLTISGVQAEDEADYYCQSADSSGTYRVFGTGTKVTVL
B14: C89A10 (antibody, V domains shown)
VH: EVQLLESGGGLVQPGGSLRLSCAASGFIFSSYAMSWVRQAPGKGLEWVSVISGSGDITYYADSVKGRFTISRDNSKNTLYLQMNSLRAEDTAVYYCAKDIDEPTAMVESWGYWGQGTLVTVSS
VL: QSALTQPRSVSGSPGQSVTISCTGTSSDVGGYNYVSWYQQHPGKAPKLMIYDVSKRPSGVPDRFSGSKSGNTASLTISGLQAEDEADYYCCSYAGSWVFGGGTKLTVL
B15: C53F9 (antibody, V domains shown)
VH: QVQLVQSGAEVKKPGASVKVSCKASGYTFTSYGISWVRQAPGQGLEWMGWISAYNGNTNYAQKLQGRVTMTTDTSTSTAYMELRSLRSDDTAVYYCARVGTYYYDSSAYYFDYWGQGTLVTVSS
VL: not shown
B16: G32Q4 (antibody, V domains shown)
VH: QVQLVESGGGVVQPGRSLRLSCAASGFTFSRYAMQWVRQAPGKGLEWVAVISYDGNNRYYADSVKGRFTISRDNSKNTLYLQMNSLRAEDTAVYYCARGPPGYYDSSGYYQTPEYFQHWGQGTLVTVSS
VL: QSVLTQPPSVSGAPGQRVTISCTGSSSNIGVGYDVHWYQQFPGTVPKLLIYGNSNRPSGVPDRFSGSKSGTSASLAITGLQAEDEADYYCQSYDSSLSGVVFGGGTKLTVL
B17: C53E1 (antibody, V domains shown)
VH: EVQLVQSGAEVKKPGESLKISCKGSGYSFTSYWIGWVRQMPGKGLEWMGIIYPGDSDTTYSPSFQGQVTISADKSISTAYLQWSSLKASDTAMYYCARRSNSPFPLIDYWGQGTLVTVSS
VL: not shown
B18: C15D4 (antibody, V domains shown)
VH: QVQLQQWGAGLLKPSETLSRTCAVYGGSFSGYYWTWIRQPPGMALEWIGDINHGGVTNYNPSLKSRVTISVDTSKNQFSLRLTSVTAADTAVYYCARRLLGDPRPASSSLSLRRVSYMDVWDKGTTVTVSS
VL: DIQMTQSPSSMSASVGDRVTITCRASQSISNYLNWYQQKPGRAPKLLIYGASSLQSGVPSRFGGSGSGTEFTLTITALQPEDSATYYCQQIHGAPPITFGQGTRLEIK
B19: C98C7 (antibody, V domains shown)
VH: EVQLVESGGGLVQPGGSLRLSCAASGITVSSNYMSWVRQAPGKGLEWVSVIYSGGSTFYADSVKGRFTISRDNSKNTLYLQMSSLRAEDTAVYYCARDLVVFGMDVWGQGTTVTVSS
VL: EIVLTQSPGTLSLSPGETATLSCRASQSVGSSYLTWYQQKPGQAPRLLIYGASSRATGIPDRFSGSGSGTDFTLTISRLEPEDFAVYYCQHYGSSPTFGQGTKVEIK

Molecular target: SARS-CoV-2 S ectodomain trimer, prefusion-stabilized, 2P variant (Wrapp et al., 2020) (SARS-CoV-2, Wuhan-Hu-1, UniProt P0DTC2, stabilised)

**Q.** Does B1 bind?
**A.** binds

**Q.** Does B2 bind?
**A.** binds

**Q.** Does B3 bind?
**A.** binds

**Q.** Does B4 bind?
**A.** binds

**Q.** Does B5 bind?
**A.** binds

**Q.** Does B6 bind?
**A.** binds

**Q.** Does B7 bind?
**A.** binds

**Q.** Does B8 bind?
**A.** binds

**Q.** Does B9 bind?
**A.** binds

**Q.** Does B10 bind?
**A.** binds

**Q.** Does B11 bind?
**A.** binds

**Q.** Does B12 bind?
**A.** binds

**Q.** Does B13 bind?
**A.** binds

**Q.** Does B14 bind?
**A.** binds

**Q.** Does B15 bind?
**A.** binds

**Q.** Does B16 bind?
**A.** binds

**Q.** Does B17 bind?
**A.** binds

**Q.** Does B18 bind?
**A.** binds

**Q.** Does B19 bind?
**A.** binds
